In publication PMC6363164 (2019):

Biological target: Rab7-RILP complex (human, UniProt P51149 2-195; Q96NA2 242-320)
Assay: ITC

Sequence of Rab7-RILP complex (P51149 2-195 Q67L, chain 1 of 2): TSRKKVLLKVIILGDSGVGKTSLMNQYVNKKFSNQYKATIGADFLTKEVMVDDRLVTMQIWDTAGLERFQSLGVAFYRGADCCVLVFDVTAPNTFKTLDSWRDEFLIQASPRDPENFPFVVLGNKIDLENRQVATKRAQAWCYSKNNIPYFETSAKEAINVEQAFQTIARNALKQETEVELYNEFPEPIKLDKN
Sequence of Rab7-RILP complex (Q96NA2 242-320, chain 2 of 2): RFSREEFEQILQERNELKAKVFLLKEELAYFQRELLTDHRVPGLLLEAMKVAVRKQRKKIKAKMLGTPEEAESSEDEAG

- Kd: 4.13 µM
B1: ORP1 ANK (5-233) (protein)
chain: AEQQLLHHARNGNAEEVRQLLETMARNEVIADINCKGRSKSNLGWTPLHLACYFGHRQVVQDLLKAGAEVNVLNDMGDTPLHRAAFTGRKELVMLLLEYNADTTIVNGSGQTAKEVTHAEEIRSMLEAVERTQQRKLEELLLAAAREGKTTELTALLNRPNPPDVNCSDQLGNTPLHCAAYRAHKQCALKLLRSGADPNLKNKNDQKPLDLAQGAEMKHILVGNKVIYK
